In patent US7122624 (dated 2006):
Blank lines part the entries; values can stand above or below the binder they belong to. No end group written: not given here.

Experiments:
[1] = molecular target: T1, PTH1 receptor (human, UniProt Q03431); test: competition, [125I]rPTH(1-34), 10 uM GTPgS, HEK293 membranes
T1 chain: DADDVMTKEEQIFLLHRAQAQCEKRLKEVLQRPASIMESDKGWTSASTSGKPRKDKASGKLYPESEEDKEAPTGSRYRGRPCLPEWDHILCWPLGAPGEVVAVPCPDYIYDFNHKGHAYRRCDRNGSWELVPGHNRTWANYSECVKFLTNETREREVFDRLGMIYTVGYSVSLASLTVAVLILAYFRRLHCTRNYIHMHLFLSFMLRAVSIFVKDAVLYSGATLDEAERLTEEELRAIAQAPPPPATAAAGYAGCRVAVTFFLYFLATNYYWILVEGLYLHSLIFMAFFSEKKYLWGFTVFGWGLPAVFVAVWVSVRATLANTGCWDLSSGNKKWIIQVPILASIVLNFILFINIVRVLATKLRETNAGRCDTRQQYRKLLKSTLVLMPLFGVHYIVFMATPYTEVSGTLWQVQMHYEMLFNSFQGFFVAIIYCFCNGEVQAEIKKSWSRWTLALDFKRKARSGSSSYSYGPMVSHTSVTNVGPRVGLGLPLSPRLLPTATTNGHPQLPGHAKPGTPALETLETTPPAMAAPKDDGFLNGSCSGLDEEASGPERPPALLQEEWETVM

[2] = molecular target: T2, PTH2 receptor (human); test: competition, [125I]TIP39, 10 uM GTPgS, HEK293 membranes
T2 chain: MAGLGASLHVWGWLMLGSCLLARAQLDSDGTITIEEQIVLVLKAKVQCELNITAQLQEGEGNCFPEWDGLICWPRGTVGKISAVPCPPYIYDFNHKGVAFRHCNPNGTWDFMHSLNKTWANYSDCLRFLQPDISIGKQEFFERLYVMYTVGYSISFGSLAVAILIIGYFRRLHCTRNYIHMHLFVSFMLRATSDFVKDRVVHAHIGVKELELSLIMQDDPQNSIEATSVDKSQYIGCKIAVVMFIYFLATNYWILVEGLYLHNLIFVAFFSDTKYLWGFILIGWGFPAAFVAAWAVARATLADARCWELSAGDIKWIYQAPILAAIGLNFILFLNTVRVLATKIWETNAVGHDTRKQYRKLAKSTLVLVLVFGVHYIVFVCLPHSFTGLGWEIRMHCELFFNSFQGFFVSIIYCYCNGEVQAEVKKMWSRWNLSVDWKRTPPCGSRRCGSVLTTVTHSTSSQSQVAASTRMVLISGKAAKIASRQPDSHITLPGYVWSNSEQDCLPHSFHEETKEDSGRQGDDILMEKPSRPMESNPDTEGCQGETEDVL

[3] = molecular target: T1, PTH1 receptor; test: other, radioligand kinetics, HEK293 membranes, 21C
[4] = molecular target: T1, PTH1 receptor; test: other, radioligand saturation, HEK293 membranes, 21C
[5] = molecular target: glucagon receptor (human, UniProt P47871); test: competition, COS-7 cells, up to 1 uM
Sequence of glucagon receptor (P47871 26-477): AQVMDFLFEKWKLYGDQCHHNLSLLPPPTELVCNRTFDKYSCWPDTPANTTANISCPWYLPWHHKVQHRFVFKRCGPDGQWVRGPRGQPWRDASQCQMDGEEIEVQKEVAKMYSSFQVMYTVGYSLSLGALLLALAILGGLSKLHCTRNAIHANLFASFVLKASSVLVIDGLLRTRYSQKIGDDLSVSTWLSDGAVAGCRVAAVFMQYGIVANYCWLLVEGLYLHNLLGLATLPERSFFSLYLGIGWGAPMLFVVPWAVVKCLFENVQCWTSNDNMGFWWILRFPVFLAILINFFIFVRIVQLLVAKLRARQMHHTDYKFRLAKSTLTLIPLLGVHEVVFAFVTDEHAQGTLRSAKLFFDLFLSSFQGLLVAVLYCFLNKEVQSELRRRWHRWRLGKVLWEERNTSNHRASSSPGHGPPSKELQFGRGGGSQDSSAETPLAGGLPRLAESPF

IC50 [1]: 5 nM
IC50 [2]: 98 nM
Binder: DAAFRERARLLAALERRHWLNSYMHKLLVLDAP [TIP(7-39)]

Kd [3]: 0.57 nM
Kd [4]: 1.3 nM
Binder: DAAFRERARLLAALERRHWLNSYMHKLLVLDAP (also: 125I label, site not given here) [[125I]TIP(7-39)]

binding result [5]: no binding
Binder: SLALADDAAFRERARLLAALERRHWLNSYMHKLLVLDAP [TIP39]
